Test results reported in US20220144956A1 (published 2022).

The binders below were run against human TGFßRII (antigen of the Octet experiments) (human, UniProt P37173 23-166) (assay: BLI (Octet)).
Chain of human TGFßRII (antigen of the Octet experiments) (P37173 23-166): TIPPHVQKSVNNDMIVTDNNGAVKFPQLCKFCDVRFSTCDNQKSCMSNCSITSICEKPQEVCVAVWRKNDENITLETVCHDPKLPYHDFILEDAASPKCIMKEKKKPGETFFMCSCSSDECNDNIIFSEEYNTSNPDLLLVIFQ

Row | Binder | Kd
1 | H1.24 L1 XENP34480 (antibody, V domains shown) VH: QLQVQESGPGLVKPSETLSLTCTVSGGSISNSHFSWGWIRQPPGKGLEWIGSFYYGEKTYYNPSLKSRATISIDTSKSQFSLKLSSVTAADTAVYYCPRGPTMIRGVIDSWGQGTLVTVSS VL: EIVLTQSPATLSLSPGERATLSCRASQSVRSYLAWYQQKPGQAPRLLIYDASNRATGIPARFSGSGSGTDFTLTISSLEPEDFAVYYCQQRSNWPPTFGQGTKVEIK | 199 pM
2 | H1.21 L1 XENP34477 (antibody, V domains shown) VH: QLQVQESGPGLVKPSETLSLTCTVSGGSISNSAFSWGWIRQPPGKGLEWIGSFYYGEKTYYNPSLKSRATISIDTSKSQFSLKLSSVTAADTAVYYCPRGPTMIRGVIDSWGQGTLVTVSS VL: EIVLTQSPATLSLSPGERATLSCRASQSVRSYLAWYQQKPGQAPRLLIYDASNRATGIPARFSGSGSGTDFTLTISSLEPEDFAVYYCQQRSNWPPTFGQGTKVEIK | 455 pM
3 | H1.37 L1 XENP34493 (antibody, V domains shown) VH: QLQVQESGPGLVKPSETLSLTCTVSGGSISNSYFSWGWVRQPPGKGLEWIGSFYYGEKTYYNPSLKSRATISIDTSKSQFSLKLSSVTAADTAVYYCPRGPTMIRGVIDSWGQGTLVTVSS VL: EIVLTQSPATLSLSPGERATLSCRASQSVRSYLAWYQQKPGQAPRLLIYDASNRATGIPARFSGSGSGTDFTLTISSLEPEDFAVYYCQQRSNWPPTFGQGTKVEIK | 391 pM
4 | H1.19 L1 XENP34475 (antibody, V domains shown) VH: QLQVQESGPGLVKPSETLSLTCTVSGGSISNGYFSWGWIRQPPGKGLEWIGSFYYGEKTYYNPSLKSRATISIDTSKSQFSLKLSSVTAADTAVYYCPRGPTMIRGVIDSWGQGTLVTVSS VL: EIVLTQSPATLSLSPGERATLSCRASQSVRSYLAWYQQKPGQAPRLLIYDASNRATGIPARFSGSGSGTDFTLTISSLEPEDFAVYYCQQRSNWPPTFGQGTKVEIK | 836 pM
5 | H1.8 L1 XENP34464 (antibody, V domains shown) VH: QLQVQESGPGLVKPSETLSLTCTVSGYSISNSYFSWGWIRQPPGKGLEWIGSFYYGEKTYYNPSLKSRATISIDTSKSQFSLKLSSVTAADTAVYYCPRGPTMIRGVIDSWGQGTLVTVSS VL: EIVLTQSPATLSLSPGERATLSCRASQSVRSYLAWYQQKPGQAPRLLIYDASNRATGIPARFSGSGSGTDFTLTISSLEPEDFAVYYCQQRSNWPPTFGQGTKVEIK | 238 pM

More lines, in order of falling Kd, values ahead:

Row | Kd | Binder
6 | 3600 pM | H1.28 L1 XENP34484 (antibody, V domains shown) VH: QLQVQESGPGLVKPSETLSLTCTVSGGSISNSYFAWGWIRQPPGKGLEWIGSFYYGEKTYYNPSLKSRATISIDTSKSQFSLKLSSVTAADTAVYYCPRGPTMIRGVIDSWGQGTLVTVSS VL: EIVLTQSPATLSLSPGERATLSCRASQSVRSYLAWYQQKPGQAPRLLIYDASNRATGIPARFSGSGSGTDFTLTISSLEPEDFAVYYCQQRSNWPPTFGQGTKVEIK
7 | 767 pM | H1.23 L1 XENP34479 (antibody, V domains shown) VH: QLQVQESGPGLVKPSETLSLTCTVSGGSISNSGFSWGWIRQPPGKGLEWIGSFYYGEKTYYNPSLKSRATISIDTSKSQFSLKLSSVTAADTAVYYCPRGPTMIRGVIDSWGQGTLVTVSS VL: EIVLTQSPATLSLSPGERATLSCRASQSVRSYLAWYQQKPGQAPRLLIYDASNRATGIPARFSGSGSGTDFTLTISSLEPEDFAVYYCQQRSNWPPTFGQGTKVEIK
8 | 325 pM | H1.38 L1 XENP34494 (antibody, V domains shown) VH: QLQVQESGPGLVKPSETLSLTCTVSGGSISNSYFSWGWIRQAPGKGLEWIGSFYYGEKTYYNPSLKSRATISIDTSKSQFSLKLSSVTAADTAVYYCPRGPTMIRGVIDSWGQGTLVTVSS VL: EIVLTQSPATLSLSPGERATLSCRASQSVRSYLAWYQQKPGQAPRLLIYDASNRATGIPARFSGSGSGTDFTLTISSLEPEDFAVYYCQQRSNWPPTFGQGTKVEIK
9 | 181 pM | H1.14 L1 XENP34470 (antibody, V domains shown) VH: QLQVQESGPGLVKPSETLSLTCTVSGGSISSSYFSWGWIRQPPGKGLEWIGSFYYGEKTYYNPSLKSRATISIDTSKSQFSLKLSSVTAADTAVYYCPRGPTMIRGVIDSWGQGTLVTVSS VL: EIVLTQSPATLSLSPGERATLSCRASQSVRSYLAWYQQKPGQAPRLLIYDASNRATGIPARFSGSGSGTDFTLTISSLEPEDFAVYYCQQRSNWPPTFGQGTKVEIK
